The values that follow come from PMC3320765 (Biochemistry, 2012).

This test concerns the target HIRA(1–405), untagged (HIRA WD repeats) (human, UniProt P54198 1-405). Put plainly: AUC.

A word on the Kd: it is the concentration at which binding is half-saturated. A higher Kd goes with a looser complex.

Chain of HIRA(1–405), untagged (HIRA WD repeats) (P54198 1-405): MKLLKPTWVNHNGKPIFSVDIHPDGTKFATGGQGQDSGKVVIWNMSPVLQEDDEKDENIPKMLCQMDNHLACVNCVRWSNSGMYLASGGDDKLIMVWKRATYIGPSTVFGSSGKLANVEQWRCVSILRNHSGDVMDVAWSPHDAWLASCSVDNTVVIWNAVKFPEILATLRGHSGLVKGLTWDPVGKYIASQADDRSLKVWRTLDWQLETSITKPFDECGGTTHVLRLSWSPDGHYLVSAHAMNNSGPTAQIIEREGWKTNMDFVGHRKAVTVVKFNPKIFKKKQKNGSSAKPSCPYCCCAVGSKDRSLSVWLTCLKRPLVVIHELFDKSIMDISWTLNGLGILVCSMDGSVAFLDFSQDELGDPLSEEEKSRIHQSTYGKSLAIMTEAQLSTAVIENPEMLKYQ

B1: 6His-UBN1(41–175) (domain or fragment, human, UniProt Q9NPG3 41-175, looked up)
chain: AAAAVRITLTLFEPDHKRCPEFFYPELVKNIRGKVKGLQPGDKKKDLSDPFNDEEKERHKVEALARKFEEKYGGKKRRKDRIQDLIDMGYGYDESDSFIDNSEAYDELVPASLTTKYGGFYINSGTLQFRQASES
For B1, the equilibrium dissociation constant (Kd) came out at 13.3 nM. This counts as double-digit nanomolar.

B2: 6His-UBN1(41–119) (domain or fragment, human, UniProt Q9NPG3 41-119, looked up)
chain: AAAAVRITLTLFEPDHKRCPEFFYPELVKNIRGKVKGLQPGDKKKDLSDPFNDEEKERHKVEALARKFEEKYGGKKRRK
The molecule B2 registered a Kd of 6.5 nM.
